According to patent US20260167712A1, “INHIBITORY ANTIBODIES AGAINST GLUT1” (ICOSAGEN CELL FACTORY OÜ, priority 2022, published 2026):
Where a chain is given by its changes, count along the chain named. Entries after “also recorded” stand apart in the source; their conditions may differ.

B1: 1G2 #9 (antibody, V domains shown)
VH: AVTLDESGGGLQTPGGALSLVCKASGFTFSTKGMGWVRQTPGKGLEWVAGISSMRRYTYYAPAVKGRATISRDNGQSTVRLQLSSLRAEDSGTYYCARDATYCSWTTSTCGWSGGTIDAWGHGTEVIVSS
VL: ALTQPSSVSANPGETVKITCSGSSGSYGWYQQKSPGSAPVTVIYWDDERPSGIPSRFSGSASGSTATLTITGVQAEDEAVYFCGSIDSSVGYVGIFGAGTTLTVL
B2: 2A2 #12 (antibody, V domains shown)
VH: B1 VH with A24G, G35M, T40A, R55S, T78A, S91T, T107A
VL: ALTQPSSVSANPGETVKITCSGGYSYYGTYYYSWYQQKSPGSAPVTLIYRNDKRPSDIPSRFSGSGSGSTSTLTITGVQAEDEAVYFCGSYDSSDSGIFGAGTTLTVL
B3: 7C3 #39 (antibody, V domains shown)
VH: B1 VH
VL: ALTQPSSVSANLGGTVKITCSGGGSSSYYGWYQQKSPGSAPVTVIYGNDRRPSDIPSRFSGSASGSTATLTITGVQAEDEAVYFCGSADSSDSGSGIFGAGTTLTVL
B4: 5G5 #30 (antibody, V domains shown)
VH: AVTLDESGGGLQTPGGALSLVCKASGFTFSSHAIFWVRQAPDKGLEFVAAISSSSGSWTAYATVVKGRATISRDNGQSTVRLQLNNLRAEDTGTYYCAKAAGSACCYAGSIDAWGHGTEVIVSS
VL: ALTQPSSVSANPGETVKITCSGGSGSSYYGWYQQKSPGSAPVTVIYYDDKRPSDIPSRFSGSKSGSTATLTITGVQVEDEAVYYCGTGDGSIAIFGAGTTLTVL

Key:
MCF7 breast cancer cells = test: Cell proliferation inhibition assay (Incucyte), MCF7; type: cell-based; conditions: for MCF7 cell growth (confluence), single agent: alone, Incucyte; for MCF7 cell growth in combination with phenformin: co-treatment with phenformin, FIGS. 7 and 9
Procedure: (§1) Incucyte S3 Live cell analysis instrument and Cell-by-Cell analysis software module (Sartorius) were used to evaluate the effect of anti-SLC2A1 antibodies on cancer cell proliferation label-free (FIGS. 5-11). MCF7, PC3 or PANC1 or MIAPACA2 cells were plated on flat bottom tissue culture 96-well plate in […] medium (Ximbio) supplemented with 2.5% FBS. Cells were incubated overnight and 0.02 nM to 13 μM anti-SLC2A1 antibodies, anti-HEL isotype control, PBS or BAY-876 were added to the cells alone or in combination with metformin (CaymanChem), phenformin (Sigma Aldrich) or IACS-010759 (CaymanChem). Cell confluence or object count was measured for 24 to 96 hours with Incucyte S3 and normalized to timepoint 0 h or 4h. anti-SLC2A1 antibodies inhibit cancer cell proliferation alone and especially in combination with complex-I inhibitors metformin, phenformin and IACS-010759. Exemplary antibodies 1G2 #9, 2A2 #12, 2E5 #22, 5G5 #30, 6F12 #33, 7C3 #39 and R14 #54 were used in proliferation assays.

[1] = target: T1, HEK-293-ALL cells transfected with human SLC2A1 (Homo sapiens, UniProt P11166); test: 2-Deoxyglucose uptake assay (Glucose Uptake-Glo); type: cell-based; conditions: 2-hour incubation, 0.35 nM to 6.89 μM, 1 mM 2DG for 20 min, FIG. 4
T1 construct: expressed in transfected cells; host or cells: HEK-293-ALL
T1 sequence (P11166 1-492): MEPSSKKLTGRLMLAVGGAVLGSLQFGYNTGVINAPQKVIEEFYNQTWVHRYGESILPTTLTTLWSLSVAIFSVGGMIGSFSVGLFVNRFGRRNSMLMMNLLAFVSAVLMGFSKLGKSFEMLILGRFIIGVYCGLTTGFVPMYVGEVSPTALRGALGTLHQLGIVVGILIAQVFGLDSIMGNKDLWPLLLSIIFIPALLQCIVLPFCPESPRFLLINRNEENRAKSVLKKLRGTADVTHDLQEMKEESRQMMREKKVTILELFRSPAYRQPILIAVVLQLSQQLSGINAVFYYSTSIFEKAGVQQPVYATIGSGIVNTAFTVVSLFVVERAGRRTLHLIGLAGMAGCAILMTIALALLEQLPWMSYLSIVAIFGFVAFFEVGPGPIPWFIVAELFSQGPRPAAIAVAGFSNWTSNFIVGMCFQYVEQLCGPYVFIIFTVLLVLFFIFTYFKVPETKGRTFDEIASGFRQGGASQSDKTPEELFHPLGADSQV
Procedure: To evaluate if the described anti-SLC2A1 antibodies inhibit glucose uptake, a commercial Glucose Uptake-Glo Assay kit (Promega) was utilized according to manufacturer's instructions. In short, HEK-293-ALL cells were transfected with human SLC2A1 expression plasmid and were incubated at 37° C. overnight in the presence of 5% CO2. Cells were washed with 0.5% BSA PBS twice and 7000 cells were plated per well into white clear bottom 96-well plates in 0.5% BSA PBS in the presence of 0.35 nM to 6.89 μM anti-SLC2A1 antibodies or glucose uptake inhibitor BAY-876 (CaymanChem). Cells were incubated for 2 hours at room temperature. Glucose uptake was initiated by the addition of 1 mM 2-deoxyglucose (2DG) and was allowed to proceed for 20 min at 37° C. in the presence of 5% CO2. After adding STOP and neutralization reagents included in the kit, luminescence was measured using GloMax Explorer microplate reader (Promega). Nonspecific luminescence was measured in lysates from cells without (2DG) being added. Data was normalized to nonspecific luminescence and to the average value of luminescence in the presence of no inhibitors.

[2] = test system: MIAPACA2 pancreatic cancer cell line; test: Cell proliferation inhibition assay (Incucyte), MIAPACA2; type: cell-based; conditions: alone, FIG. 11
Procedure: as §1

[3] = test system: PC3 prostate cancer cell line; test: Cell proliferation inhibition assay (Incucyte), PC3; type: cell-based; conditions: alone, FIG. 11
Procedure: as §1

SLC2A1 pseudotyped VLPs [4] = target: T2, SLC2A1 pseudotyped VLPs (UniProt P11166 1-492); test: ELISA
T2 chain: T1 sequence (P11166 1-492)

SLC2A1 pseudotyped VLPs [5] = target: T3, SLC2A1 pseudotyped VLPs (Homo sapiens, UniProt P11166); test: ELISA-based SLC2A1 VLP binding assay; conditions: 5 μg/mL VLP coating, FIG. 1
T3 sequence (P11166 1-492): T1 sequence (P11166 1-492)
Procedure: An ELISA-based VLP binding assay was carried out to compare the EC50 values of antibody clones (FIG. 1). Similarly, ELISA based VLP binding assay was performed to compare the binding of the antibodies to different glucose transporters (FIG. 3). MaxiSorp™ high-capacity binding ELISA plate (Thermo Fisher Scientific, US) were coated with 5 μg/mL SLC2A1, SLC2A2, SLC2A3, SLC2A4 pseudotyped VLPs or MOCK VLPs in PBS overnight. The plate was washed and blocked for 1 h with 0.05% Tween 20, 2% BSA in PBS. Serial dilutions of antibodies were incubated on a washed plate for 1 hour, followed by a 1-hour incubation with goat anti-human IgG horse radish peroxidase (HRP) conjugated (Invitrogen) antibody. TMB (3,3′,5,5′-Tetramethylbenzidine) Solution VII (Biopanda Diagnostics) was used as a substrate for HRP and 0.5 M H2SO4 was used as stop solution. After every step, the wells were washed with 0.05% Tween 20, 0.1% Proclin 300 PBS solution. Absorption at 450 nm was measured with Thermo Scientific™ Multiskan™ FC Microplate Photometer. Exemplary wise used antibodies 1G2 #9, 2A2 #12, 2E5 #22, 5G5 #30, 6F12 #33, 7C3 #39 all bound SLC2A1 VLPs with low nanomolar EC50 values (FIG. 1).

| Molecule | MCF7 cell growth (confluence), single agent (MCF7 breast cancer cells) | MCF7 cell growth in combination with phenformin (MCF7 breast cancer cells) | EC50 (SLC2A1 pseudotyped VLPs [4]) [nM] | EC50 of binding to SLC2A1 VLPs (SLC2A1 pseudotyped VLPs [5]) | also measured |
| --- | --- | --- | --- | --- | --- |
| [H]/N=C(/N)N/C(=N/[H])NCCc1ccccc1 [phenformin, reference compound] | did not influence cell growth; also recorded: No growth inhibition |  |  |  |  |
| Cc1c(NC(=O)c2cc(C(N)=O)nc3cc(F)ccc23)c(C(F)(F)F)nn1Cc1ccc(C#N)cc1 [BAY-876, reference compound] |  |  |  |  | glucose (2-deoxyglucose) uptake [1]: strong concentration dependent decrease |
| CN(C)C(=N)N=C(N)N [Metformin, metformin, reference compound] | did not influence cell growth |  |  |  |  |
| Cc1nc(-c2nc(-c3ccc(OC(F)(F)F)cc3)no2)nn1Cc1cccc(N2CCC(S(C)(=O)=O)CC2)c1 [IACS-010759, reference compound] | did not influence cell growth |  |  |  | MIAPACA2 cell growth, single agent [2]: inhibited; PC3 cell growth, single agent [3]: inhibited |
| B1 |  | No growth inhibition | 4.1 | low nanomolar |  |
| B2 |  | No growth inhibition | 2.9 | low nanomolar |  |
| B3 |  | completely inhibit; also recorded: most potent growth inhibitors | 1.4 | low nanomolar |  |
| B4 |  | completely inhibit; also recorded: drastically inhibited; also recorded: most potent growth inhibitors | 1.2 | low nanomolar | MCF7 cell growth in combination with IACS-010759 (MCF7 breast cancer cells; co-treatment with IACS-010759, FIG. 8): drastically inhibited; MCF7 cell growth in combination with metformin (MCF7 breast cancer cells; co-treatment with metformin, FIG. 6): drastically inhibited |
